“Also recorded” adds a separate entry of the source. No end group written: not given here.
B1: HuScn: Human siderocalin, reference protein in the SYPRO Orange melting assay (protein, UniProt P80188 21-198, looked up)
Neutrophil …: QDSTSDLIPAPPLSKVPLQQNFQDNQFQGKWYVVGLAGNAILREDKDPQKMYATIYELKEDKSYNVTSVLFRKKKCDYWIRTFVPGCQPGEFTLGNIKSYPGLTSYLVRVVSTNYNQHAMVFFKKVSQNREYFKITLYGRTKELTSELKENFIRFSKSLGLPENHIVFPVPIDQCIDG

What was measured:
[1] = Stability in simulated gastric fluid (SGF, pH 1.05), RP-HPLC; type: physicochemical; conditions: HPLC vs non-reduced peptide
Experimental: Peptides were first suspended in 500 ul of ddH2O to a stock concentration of 2 mg/ml. Reactions were prepared by adding 12.5 ug of peptide from the stock solution to a 10 mM solution of DTT in PBS and allowed to incubate at room temperature for 30 minutes. Other reactions were prepared with 12.5 μg peptide with or without 500 U/ml pepsin in simulated gastric fluid (SGF; pH 1.05; […] sodium chloride in 0.7% (v/v) hydrochloric acid) and were incubated for 30 minutes at 37.5° C. Some reactions were quenched with a final concentration of 100 mM Tris base and 10 mM dithiothreitol (DTT). Some reactions were performed in all of the above components, including simulated gastric fluid, pepsin, Tris, and DTT (referred to as SPTD). Reversed phase HPLC (RP-HPLC) was run on samples using an Agilent 1260 HPLC equipped with a C-18 Poroshell 120B column. Sample were analyzed by a gradient method with a mobile phase of Solvent A (water with 0.1% TFA) and Solvent B (acetonitrile with 0.1% TFA). Solvent B was ramped up from 5%-45% of the mobile phase over a period of 10 minutes. Peptides were detected at an absorbance of 214 nm and 280 nm.
This example illustrates peptide stability in biological conditions including in the presence of reducing agents, proteases, oxidative conditions, acidic conditions, and simulated gastric fluids. […] Various peptides were suspended in 500 μl of ddH2O at a stock concentration of 2 mg/ml. This was then diluted in accord with the reaction conditions to prevent adverse buffering effects. Reactions were prepared with 12.5 μg peptide dissolved in solution and, in some samples, additionally suspended in a 10 mM solution of DTT, simulated gastric fluid (pH 1.05; […] sodium chloride in 0.7% (v/v) hydrochloric acid), 500 U pepsin (5000 U/ml pepsin), 50 U trypsin (500 U/ml trypsin) with 1 mg/ml inhibitor in PBS, or a combination of any of these conditions. All protease reactions were incubated for 30 min at room temperature and then quenched. Pepsin reactions were quenched by adding Tris base to a final concentration of 0.075 M. Trypsin reactions were quenched by adding excess soybean trypsin inhibitor. RP-HPLC was then run on samples using an Agilent 1260 HPLC equipped with a C-18 Poroshell 120B column. Sample were analyzed by a gradient method with a mobile phase of Solvent A (water with 0.1% TFA) and Solvent B (acetonitrile with 0.1% TFA). Solvent B was ramped up from 5%-45% of the mobile phase over a period of 10 minutes.

trypsin = trypsin (Sus scrofa, UniProt P00761); test: Trypsin digestion resistance of soluble peptide, RP-HPLC; type: in vitro ADME, porcine; parameters: purchased Sigma Aldrich 6567; conditions: 50 U trypsin (500 U/ml), 30 min at room temperature, with or without 10 mM DTT; HPLC
Chain of trypsin (P00761 9-231): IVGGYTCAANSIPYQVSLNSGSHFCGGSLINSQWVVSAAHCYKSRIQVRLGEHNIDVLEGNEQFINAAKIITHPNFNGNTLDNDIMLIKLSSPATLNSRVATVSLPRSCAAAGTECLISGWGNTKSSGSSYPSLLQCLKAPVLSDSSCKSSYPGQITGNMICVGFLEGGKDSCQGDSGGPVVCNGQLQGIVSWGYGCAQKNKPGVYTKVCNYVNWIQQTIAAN
In short: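 12.5 μg soluble peptide digested with 500 U/ml porcine trypsin in PBS, 30 min at 37.5° C; quenched with soybean trypsin inhibitor, with or without 10 mM DTT reduction afterwards. Intact peptide assessed by C-18 RP-HPLC, 5-45% acetonitrile/0.1% TFA gradient over 10 min.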

pepsin = pepsin (Sus scrofa, UniProt P00791); test: Pepsin digestion resistance in simulated gastric fluid, RP-HPLC; type: in vitro ADME, porcine; parameters: purchased Sigma Aldrich P7012; conditions: HPLC
Chain of pepsin (P00791 60-385): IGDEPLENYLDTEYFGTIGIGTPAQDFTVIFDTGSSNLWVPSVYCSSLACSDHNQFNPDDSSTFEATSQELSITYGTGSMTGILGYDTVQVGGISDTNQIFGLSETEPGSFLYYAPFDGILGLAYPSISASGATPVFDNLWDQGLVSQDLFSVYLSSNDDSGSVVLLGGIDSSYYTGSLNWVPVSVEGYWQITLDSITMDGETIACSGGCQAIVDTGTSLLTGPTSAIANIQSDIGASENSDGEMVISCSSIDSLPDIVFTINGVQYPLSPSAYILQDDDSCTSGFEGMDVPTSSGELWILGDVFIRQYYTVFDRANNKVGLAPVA
In short: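 Peptide (12.5 μg) incubated 30 min at 37.5 °C with or without 500 U/ml pepsin in simulated gastric fluid (pH 1.05; 2% NaCl in 0.7% HCl); some reactions quenched with 100 mM Tris and 10 mM DTT. Intact peptide followed by C-18 RP-HPLC (5–45% acetonitrile/0.1% TFA over 10 min) at 214 and 280 nm.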

[2] = Resistance to reduction by reduced glutathione (GSH), HPLC; type: physicochemical; conditions: 10 mM reduced glutathione (GSH); HPLC vs non-reduced peptide
Experimental: This example describes stability of designed or engineered peptides under reducing conditions. Peptides that are designed or engineered to interact with one or more target proteins in the cell, such as proteins in the nucleus, are exposed to reducing conditions in the cytosolic compartment of cells. Thus, it is advantageous for peptides of this disclosure to display stability in reducing conditions. Stability of peptides of this disclosure was tested in 10 mM DTT and 10 mM GSH. GSH is a more physiologically relevant reducing agent for testing peptide stability in intracellular conditions. An example of a peptide-target protein interaction is a peptide binding to a TEAD protein.

TEAD protein = test: Binding of surface-displayed (SDGF) peptide to biotinylated target protein after reducing agent, flow cytometry; type: cell-based; conditions: HEK-293 cells displaying peptide, 20 nM biotinylated target protein
Experimental: Designed or engineered peptides of this disclosure were also tested to evaluate if the peptides' binding activity to their target protein (e.g., TEAD protein) was affected by exposure to reducing conditions. HEK-293T suspension cells were transfected with a surface display GFP FasL(SDGF) vector comprising SEQ ID NO: 39 (SDGF-SEQ ID NO: 39) or SDGF vector comprising SEQ ID NO: 43 (SDGF-SEQ ID NO: 43) construct. Cultures were grown for two days, followed by incubation in 10 mM GSH or 10 mM DTT. Finally, cells were stained with biotinylated-target protein to evaluate the binding activity of a peptide to the target protein. FIG. 15 illustrates the stability of peptides of SEQ ID NO: 39 and SEQ ID NO: 43 after exposure to a reducing agent. Each peptide was expressed on a cell surface and tested for binding to a target protein after cells expressing SDGF-SEQ ID NO: 43 or SEQ ID NO: 39 were exposed to a reducing agent. FIG. 15A illustrates a flow cytometry plot showing binding of HEK-293 suspension cells transfected with SDGF-SEQ ID NO: 39 (GFP) incubated for 5 minutes in PBS, 10 mM DTT, or 10 mM reduced glutathione (GSH) before staining with 20 nM biotinylated target protein and 20 nM AF647-streptavidin. FIG. 15B illustrates a flow cytometry plot showing binding of HEK-293 suspension cells transfected with SDGF-SEQ ID NO: 43 (GFP) incubated for 5 minutes in PBS, 10 mM DTT, or 10 mM reduced glutathione (GSH) before staining with 20 nM biotinylated target protein and 20 nM AF647-streptavidin. FIG. 15C illustrates quantification of the AF647 mean fluorescence intensity (MFI) of cells falling within the “slice” gate shown in FIG. 15A and FIG. 15B. […] In other words, peptides of SEQ ID NO: 39 and SEQ ID NO: 43 were resistant to reduction by GSH.

[3] = Resistance to reduction by DTT, RP-HPLC; type: physicochemical; conditions: 10 mM DTT; HPLC vs non-reduced peptide
In short: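 Peptide (12.5 μg from a 2 mg/ml stock, or 0.015 mM final in PBS) was held 30 min at room temperature with or without 10 mM DTT. Reduced and non-reduced forms were compared by C-18 RP-HPLC using a 5–45% acetonitrile/0.1% TFA gradient over 10 min, with detection at 214 and 280 nm.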

[4] = Circular dichroism thermal stability, heating 20° C. to 95° C.; type: physicochemical; conditions: 10 mM phosphate buffer pH 7.4; heated 20° C. to 95° C.
Experimental: (§1) Protein secondary structures were assessed using Circular Dichrosim (CD). CD spectra were measured with a Jasco J-720W spectropolarimeter using a 1.0 mm path length cell. Protein samples in 10 mM phosphate buffer (pH=7.4) were at 25-30 μM protein concentration. Samples were analyzed at wavelength ranges of […]. Data were expressed in terms of relative ellipticity [θ]; (mdeg). To determine thermal stability of proteins, samples were subjected to incremental increase in temperature at a ramp of 2° C./min from 20° C. to 95° C. Stability and protein unfolding were monitored at 220 and 215 for α-helix and β-sheet secondary structures, respectively. Data are expressed in terms of relative ellipticity [θ], reported in mdeg. For SEQ ID NO: 43 and its point mutant variants, no changes to the α-helix-dominated structure were observed upon heating up to 95° C. […] Additionally, protein melting temperature (Tm) determination was performed by monitoring protein unfolding using SYPRO Orange dye (Molecular Probes). In brief, 0.1 mg/mL protein sample in 20 μL total volume PBS buffer were mixed with 24, of 10× SYPRO Orange dye. Dye intercalation into the hydrophobic protein core following protein unfolding was assayed using the C1000 Touch Thermal Cycler with CFX96 Deep Well Real-Time System (BioRad). Samples were heated from 20° C. to 95° C. with stepwise increments of 0.5° C. per minute and a 5 sec hold step for every point, followed by fluorescence reading. Tm were calculated by analyzing the derivatives of Relative florescence Units (RFU). FIG. 17D illustrates this SYPRO Orange melting assay of Peptides.

[5] = SYPRO Orange melting assay; type: physicochemical; conditions: heating from 20° C. to 95° C.
Experimental: as §1

[6] = Resistance to elevated temperature, HPLC; type: physicochemical; conditions: 100° C. for 1 hour; HPLC
In short: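 Peptides were incubated at room temperature, 70° C or 100° C for one hour in ddH2O; another protocol used 70° C, 75° C or 100° C for one hour in 0.5 mM PBS, then pelleting and analysis of the supernatant. Remaining peptide was measured by C-18 RP-HPLC, 5–45% acetonitrile/0.1% TFA over 10 min.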

Molecule | resistance to GSH reducing conditions [2] | resistance to reduction by DTT (in words) [3] | CD secondary structure signature before (Pre) and after (Post) incubation at 95° C. [4] | melting temperature (Tm) [5] | other results
GSGVPINVRSRGSRDSLDPSRRAGMRFGRSINSRSHSTP [SEQ ID NO: 177, reference compound] | – | – | – | – | stability in simulated gastric fluid / low pH (in words) [1]: stable; resistance to trypsin, Example 7 conditions (in words) (trypsin): degraded; resistance to pepsin, Example 7 conditions (in words) (pepsin; 500 U pepsin (5000 U/ml) in SGF, 30 min at room temperature, with or without DTT): degraded
GSPDEYIERAKECCKKGDIQCCLRYFEESGDPNVMLICLFCP [SEQ ID NO: 39] | resistant | – | – | – | binding to target protein after DTT treatment (TEAD protein; 5 minutes in 10 mM DTT): partial loss in binding; binding to target protein after GSH treatment (TEAD protein; 5 minutes in 10 mM GSH): no loss in binding
GSPDEYIERAKECCKKQDIQCCLRIFDESGDPNVMLICLFCW [SEQ ID NO: 44] | – | partially resistant | similar; also recorded: identical | no melting temperature could be determined | –
GSPDEYIERAKECCKKQDIQCCLRIFDESKDPNVMLICLFCP [SEQ ID NO: 45] | – | partially resistant | identical; also recorded: similar | no melting temperature could be determined | resistance to incubation at 100° C. (in words) [6]: resistant; resistance to pepsin digestion (in words) (pepsin; 500 U/ml pepsin (50 U per reaction) in SGF, 30 minutes at 37.5° C.): resistant
PDEYIERAKECCKKGDIQCCLRYFEESGDPNVMLICLFCP [SEQ ID NO: 122] | resistant | – | – | – | –
B1 | – | – | – | 79 °C | –
